Assay results reported in the Human Domainome abundance scans (Beltran et al. 2025).
± gives the uncertainty stated by the source.

B1: POU domain, class 3, transcription factor 4, residues 280 to 335; numbered along this chain, P49335 (parent)
chain: KKRTSIEVSVKGVLETHFLKCPKPAAQEISSLADSLQLEKEVVRVWFCNRRQKEKR

Variants of: B1
Assay: abundance fitness (aPCA) (normalised: wild type 0, dead -1); higher = more abundant; growth selection in yeast, the domain comes from the species named
Settings: Homo sapiens

Variant | abundance fitness
N49E | 0.117 ± 0.2
N49I | -0.613 ± 0.24
N49M | -0.304 ± 0.22
N49L | -0.479 ± 0.14
K1W | 0.033 ± 0.42
K53D | -0.232 ± 0.2
K53Q | -0.258 ± 0.24
K53S | -0.318 ± 0.15
K53P | -0.884 ± 0.25
K53G | -0.826 ± 0.2
K53N | -0.544 ± 0.41
K53F | -0.027 ± 0.29
A26P | 0.149 ± 0.19
A26D | 0.396 ± 0.2
A26S | -0.095 ± 0.14
A26M | 0.108 ± 0.18
A26H | -0.237 ± 0.23
A26C | -0.211 ± 0.18
A26E | 0.385 ± 0.15
L32C | -0.633 ± 0.25
L32G | -0.784 ± 0.22
L32P | -0.176 ± 0.34
L32S | -0.732 ± 0.24
L32H | -0.86 ± 0.35

Variant | abundance fitness
L32V | -0.625 ± 0.2
F47W | -0.769 ± 0.21
F47L | -0.868 ± 0.17
F47C | -0.792 ± 0.31
F47V | -0.795 ± 0.19
F47H | -0.571 ± 0.38
F47S | -0.426 ± 0.15
F47M | -0.897 ± 0.3
P22R | -0.37 ± 0.15
P22D | -0.363 ± 0.23
P22F | -0.732 ± 0.23
W46S | -0.693 ± 0.21
W46A | -0.623 ± 0.15
W46Q | -0.403 ± 0.27
W46F | -1.05 ± 0.34
W46E | -0.892 ± 0.25
E28Q | -0.432 ± 0.19
E28I | -0.47 ± 0.19
E28A | -0.657 ± 0.14
E28F | -0.732 ± 0.17
E28G | -0.886 ± 0.16
E28C | -0.569 ± 0.19
E28P | -0.352 ± 0.22
E28L | -0.357 ± 0.13

Variant | abundance fitness
E28Y | -0.382 ± 0.21
V45I | -0.527 ± 0.34
V45P | -0.38 ± 0.2
V45T | 0.307 ± 0.15
V45Q | 0.156 ± 0.14
V45E | 0.193 ± 0.14
V45Y | -0.372 ± 0.25
V45M | -0.041 ± 0.26
Q27C | -0.16 ± 0.18
Q27M | -0.344 ± 0.21
Q27A | 0.078 ± 0.12
V8I | 0.04 ± 0.14
V8T | 0.307 ± 0.21
V8L | 0.293 ± 0.12
V8P | 0.736 ± 0.24
V8D | 0.006 ± 0.31
V8Y | 0.231 ± 0.4
K20I | -0.574 ± 0.2
K20C | -0.735 ± 0.18
K20Q | -0.578 ± 0.25
K20V | -0.429 ± 0.12
K20L | -0.446 ± 0.12
K20Y | -0.788 ± 0.18
K20M | -0.812 ± 0.26

Variant | abundance fitness
T16M | -0.214 ± 0.18
T16V | -0.504 ± 0.13
T16S | 0.217 ± 0.13
T16Y | -0.306 ± 0.42
C48I | 0.155 ± 0.2
C48H | 0.068 ± 0.28
C48E | 0.549 ± 0.19
C48M | 0.022 ± 0.19
C48A | -0.051 ± 0.18
C48G | -0.526 ± 0.14
A33E | -0.634 ± 0.26
A33K | -0.959 ± 0.41
A33G | -0.853 ± 0.2
A33W | -0.835 ± 0.27
A33F | -0.773 ± 0.3
A33T | -0.704 ± 0.25
A33R | -0.667 ± 0.15
A33L | -0.598 ± 0.13
S30R | -0.185 ± 0.14
S30Q | -0.163 ± 0.2
S30E | 0.215 ± 0.15
S30G | -0.209 ± 0.13
S30P | -0.652 ± 0.24
S30I | -0.148 ± 0.3

Variant | abundance fitness
H17W | -0.159 ± 0.15
H17Y | 0.386 ± 0.18
H17C | -0.497 ± 0.2
H17T | -0.464 ± 0.23
H17G | -0.662 ± 0.16
H17S | -0.262 ± 0.16
H17L | -0.401 ± 0.12
K23E | 0.142 ± 0.11
K23H | 0.186 ± 0.22
K23T | 0.237 ± 0.15
K23N | 0.559 ± 0.18
K23R | 0.118 ± 0.12
K23Q | 0.064 ± 0.18
K23G | -0.664 ± 0.14
K23D | 0.263 ± 0.15
K23P | -0.697 ± 0.27
D34P | -0.843 ± 0.29
D34I | -0.717 ± 0.32
D34G | -0.537 ± 0.15
D34L | -0.528 ± 0.13
Q52H | -0.069 ± 0.23
Q52C | -0.291 ± 0.21
Q52A | 0.203 ± 0.13
Q52P | -0.741 ± 0.22

Variant | abundance fitness
Q52D | 0.231 ± 0.2
Q52M | 0.071 ± 0.2
Q52Y | -0.095 ± 0.34
R44N | 0.059 ± 0.23
R44M | -0.539 ± 0.22
R44E | 0.182 ± 0.18
R44C | -0.801 ± 0.38
R44L | -0.686 ± 0.12
R44Q | -0.074 ± 0.16
R44S | -0.343 ± 0.14
R44I | -1.01 ± 0.36
V43K | -1.01 ± 0.36
V43D | -0.614 ± 0.28
V43T | -0.975 ± 0.2
V43Y | -0.545 ± 0.23
V43Q | -0.601 ± 0.3
V43I | -0.543 ± 0.2
V43A | -0.692 ± 0.19
V43L | -0.437 ± 0.15
V43M | -1.22 ± 0.47
E54Q | -0.259 ± 0.24
E54H | -0.906 ± 0.33
E54W | -0.902 ± 0.25
E54C | -0.897 ± 0.3

Variant | abundance fitness
K11A | 0.778 ± 0.47
R3K | 0.03 ± 0.33
R3I | 0.104 ± 0.17
R3A | -0.162 ± 0.14
R3H | -0.277 ± 0.31
R3T | 0.205 ± 0.14
R3Y | 0.069 ± 0.18
R3S | 0.261 ± 0.12
F18L | -1.03 ± 0.16
F18E | -0.851 ± 0.17
F18S | -0.719 ± 0.14
F18C | -0.745 ± 0.21
F18W | -0.485 ± 0.13
F18A | -0.891 ± 0.14
F18T | -0.732 ± 0.18
F18R | -0.812 ± 0.12
F18N | -0.859 ± 0.27
E15H | -0.873 ± 0.31
E15F | -0.681 ± 0.21
E15Y | -1.23 ± 0.38
E15K | -0.728 ± 0.21
E15L | -0.645 ± 0.13
E15W | -1.04 ± 0.24
